Measurements taken from US20190352335A1, “BRAIN TARGETING LONG-ACTING PROTEIN CONJUGATE” (HANMI PHARM. CO., LTD., priority 2016, published 2019).

Assay: In vitro specific enzyme activity of idursulfase conjugate (4MU fluorescence)
Type: biochemical
Settings: substrate 4MU-α-idopyraA-2, 37° C. 4 hours, then α-iduronidase 37° C. 24 hours; FIG. 5
Experimental: To examine the presence of any change in specific activity of idursulfase according to the preparation of idursulfase-10 K PEG-Fc-BTP22 conjugate, an in vitro experiment for specific activity of enzymes was performed, 4-Methylumbelliferyl α-L-idopyranosiduronic acid-2-sulfate sodium salt (4MU-α-idopyraA-2), which is known as an enzyme substrate for idursulfase, was reacted with idursulfase β and IDS-Fc-BTP22 at 37° C. for 4 hours, and then, reacted with α-iduronidase, which is a secondary reaction enzyme, at 37° C. for 24 hours. The enzyme activity of 4-methylumbelliferone (4 MU), the final product, was measured by the measurement of the fluorescence of the corresponding substance (FIG. 5).
In particular, the values of enzyme activity were calculated in terms of specific activity per converted rate of weight (μg).

B1: idursulfase (protein, UniProt P22304 34-455; P22304 456-550, looked up)
Iduronate 2-sulfatase 42 kDa …: TDALNVLLIIVDDLRPSLGCYGDKLVRSPNIDQLASHSLLFQNAFAQQAVCAPSRVSFLTGRRPDTTRLYDFNSYWRVHAGNFSTIPQYFKENGYVTMSVGKVFHPGISSNHTDDSPYSWSFPPYHPSSEKYENTKTCRGPDGELHANLLCPVDVLDVPEGTLPDKQSTEQAIQLLEKMKTSASPFFLAVGYHKPHIPFRYPKEFQKLYPLENITLAPDPEVPDGLPPVAYNPWMDIRQREDVQALNISVPYGPIPVDFQRKIRQSYFASVSYLDTQVGRLLSALDDLQLANSTIIAFTSDHGWALGEHGEWAKYSNFDVATHVPLIFYVPGRTASLPEAGEKLFPYLDPFDSASQLMEPGRQSMDLVELVSLFPTLAGLAGLQVPPRCPVPSFHVELCREGKNLLKHFRFRDLEEDPYLPG
Iduronate 2-sulfatase 14 kDa …: NPRELIAYSQYPRPSDIPQWNSDKPSLKDIKIMGYSIRTIDYRYTVWVGFNPDEFLANFSDIHAGELYFVDSDPLQDHNMYNDSQGGDLFQLLMP
notes: purified type of iduronate-2-sulfatase (Shire, Ireland), approximately 72 kDa
enzyme activity (specific activity per weight of idursulfase part): 23.4 ± 1.94 nmol/min/µg
